These results are taken from patent US20080160570.

The target of this series is fusion protein ubiquitin-growth hormone (hybrid polypeptide).
fusion protein ubiquitin-growth hormone (hybrid polypeptide), sequence (chain, as listed by the source): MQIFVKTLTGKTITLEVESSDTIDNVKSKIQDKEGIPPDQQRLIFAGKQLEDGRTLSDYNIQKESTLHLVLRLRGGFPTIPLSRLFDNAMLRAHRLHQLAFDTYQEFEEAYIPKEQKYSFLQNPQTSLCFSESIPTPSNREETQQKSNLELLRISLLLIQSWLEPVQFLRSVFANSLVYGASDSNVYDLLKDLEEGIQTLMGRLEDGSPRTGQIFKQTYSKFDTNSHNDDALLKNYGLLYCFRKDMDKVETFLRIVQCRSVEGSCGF

B1: UBP1ΔC (UBP1 protease mutant) (protein)
chain: GGDHLNYIWESWSEMTTNFRNNNSLSRWLPRSKFTHLDEEILKRGGFIAGLWNDGNTCFMNSWLQSLASSRELMEFLDNNWIRTYEEIEQNEHNEEGNGQESAQDEATHKKNTRKGGKWYGKHKKKLNRKSSSKEDEEKSQEPDITFSWALRDLLSALNAKYYRDKPYFKTNSLLKAMSKSPRKNILLGYDQEDAQEFFQNILAELESNWKSLNTEKLDTTPWAKSELPDDALWGQLNLGEWGTWYIPTEQIDPNSILHDKSIQNFTPFKLMTPLDGITAERIGCLQCGENGGIRYSWFSGLSLNLPNENIGSTLKLSQLLSDWSKPEIIEGWECNRCALTAAHSHLFGQLKEFEKKPEGSIPEKPINAWKDRWHQIEEWLAKPWIDDEDYKKLHTANMWRKCSKSKQILISRPPPLLSIHINRSWFDPRTYMIRKNNSKWLFKSRLNLAPWCCDINEINLDARLPMSKKEKAAQQDSSEDENIGGEYYTKLHERFEQEFEDSEEEKEYDDAEGNYASHYNHTKDISNYDPLNGEWDGWTSDDEDEYIEETDALGNTIKKRIIEHSDWENENWKDNEELQEIDNWSLDEPKINWEDQLETSSDEEDWIPAPPINYARSFSTWPATPLTYSLRSWIWHYGTHNYGHYIAFRKYRGCWWRISDETWYWWDEAEWLSTPGWFMLFYEYDFDEETGKMKDDLEAILSNNEEDDEKEQEQKGWQEPKESQEQGEGEEQEEGQEQMKFERTEDHRDISGKDWNGSHHHHHH
Regarding B1, the “enzymatic cleavage of the carrier protein ubiquitin from growth hormone (37° C., 1 h); amount of fusion protein per amount of enzyme” value is given as “UBP1Δ C 1 µg-14 µg protein”.

B2: UBP1ΔC2 (UBP1 protease mutant) (protein)
chain: GGFIAGLVNDGNTCFMNSVLQSLASSRELMEFLDNNVIRTYEEIEQNEHNEEGNGQESAQDEATHKKNTRKGGKVYGKHKKKLNRKSSSKEDEEKSQEPDITFSVALRDLLSALNAKYYRDKPYFKTNSLLKAMSKSPRKNILLGYDQEDAQEFFQNILAELESNVKSLNTEKLDTTPVAKSELPDDALVGQLNLGEVGTVYIPTEQIDPNSILHDKSIQNFTPFKLMTPLDGITAERIGCLQCGENGGIRYSVFSGLSLNLPNENIGSTLKLSQLLSDWSKPEIIEGVECNRCALTAAHSHLFGQLKEFEKKPEGSIPEKPINAVKDRVHQIEEVLAKPVIDDEDYKKLHTANMVRKCSKSKQILISRPPPLLSIHINRSVFDPRTYMIRKNNSKVLFKSRLNLAPWCCDINEINLDARLPMSKKEKAAQQDSSEDENIGGEYYTKLHERFEQEFEDSEEEKEYDDAEGNYASHYNHTKDISNYDPLNGEVDGVTSDDEDEYIEETDALGNTIKKRIIEHSDVENENVKDNEELQEIDNVSLDEPKINVEDQLETSSDEEDVIPAPPINYARSFSTVPATPLTYSLRSVIVHYGTHNYGHYIAFRKYRGCWWRISDETVYVVDEAEVLSTPGVFMLFYEYDFDEETGKMKDDLEAILSNNEEDDEKEQEQKGVQEPKESQEQGEGEEQEEGQEQMKFERTEDHRDISGKDVNGSHHHHHH
Turning to B2, the “enzymatic cleavage of the carrier protein ubiquitin from growth hormone (37° C., 1 h); amount of fusion protein per amount of enzyme” value is given as “UBP1Δ C 2 1 µg-60 µg protein”.
